This data set in a line: soluble on expression in E. coli; label from the status in PepcDB or PDB records.
Turning to “MSNGIVIIGSGFAARQLVKNIRKQDATIPLTLIAADSMDEYNKPDLSHVISQGQRADDLTRQTAGEFAEQFNLHLFPQTWVTDIDAEARVVKSQNNQWQYDKLVLATGASAFVPPVPGRELMLTLNSQQEYRACETQLRDARRVLIVGGGLIGSELAMDFCRAGKAVTLIDNAASILASLMPPEVSSRLQHRLTEMGVHLLLKSQLQGLEKTDSGIQATLDRQRNIEVDAVIAATGLRPETALARRAGLTINRGVCVDSYLQTSNTDIYALGDCAEINGQVLPFLQPIQLSAMVLAKNLLGNNTPLKLPAMLVKIKTPELPLHLAGETQRQDLRWQINTERQGMVARGVDDADQLRAFVVSEDRMKEAFGLLKTLPM”, the “soluble on expression in E. coli” value is recorded as “not soluble”. For “MSCYIYWDKIKRIASRLEGMNYHFDEMDTSGVMPLLDEIEEIAHDSTIDFESAKHILDDAEMNHALSLIRKFYVNLGMKLQMEKAQEVIESDSPWETLRSFYFYPRYLELLKNEAALGRFRRGERAVFIGGGPLPLTGILLSHVYGMRVNVVEIEPDIAELSRKVIEGLGVDGVNVITGDETVIDGLEFDVLMVAALAEPKRRVFRNIHRYVDTETRIIYRTYTGMRAILYAPVSDDDITGFRRAGVVLPSGKVNNTSVLVFKCPDKGELNSKLEGKPIPNPLLGLDSTRTGHHHHHH” the value was “soluble”; for “MRGSHHHHHHDDYDGIPNLTAVQISPNADPALGLEYPVRPPVPGAGGLNASAKGIHSIAIGATAEAAKGAAVAVGAGSIATGVNSVAIGPLSKALGDSAVTYGAASTAQKDGVAIGARASTSDTGVAVGFNSKADAKNSVAIGHSSHVAANHGYSIAIGDRSKTDRENSVSIGHESLNRQLTHLAAGTKDTDAVNVAQLKKEIEKTQENTNKRSAELLANANAYAD”, “soluble”; for “MGHHHHHHSHVSRHYCPTCCYPMNACLCSHLQQIKPQTQLLVLQHPSEVEHKKNSVRVLSLVIPDTQVYVGESEADFAALRAQLSRCQRPIYLVYPSEQSASVESQSICVDCVLLLIDGTWRKAFKILQLNPWLAQFPAVHLAQGYASRYKIRKSSRSDSLSTLEASAYMLKALDDGLDVSPLLAAFDAMVAMRLQAMPAEVRLRYD”, “not soluble”. On to “MGHHHHHHSHSLHYIHPYQPNEYLKALVAVGEICQDYDSDKMFPAFGFGARIPPEYTVSHDFAINFNEDNPECAGIQGVVEAYQSCLPKLQLYGPTNIAPIIQKVAKSASEETNTKEASQYFILLILTDGVITDMADTREAIVHASHLPMSVIIVGVGNADFSDMQMLDGDDGILRSPKGEPVLRDIVQFVPFRNFKHASPAALAKSVLAEVPNQVVDYYNGKGIKPKCSSEMY”, for which the “soluble on expression in E. coli” value is reported as “soluble”. In the case of “MGSDKIHHHHHHMTIATDSLKLITTVEQLKYYLIQAMKIEHATIPPYMTALYSIKPGKNLEAFHIIREVAVEEMLHLTLVANVYNAVGGSFASPVLTAPNFIPTYPSYLPTGSTDFKVGLTKFSKKTIETFRKIERSKDVEEGDPLVESRSLQEYLLEVVGCDPTKTFYSIGLFYAEIIRGLNALYKEKGPDLFCGDPRRQITPEYYYNGGGDIIPVTDLRSAMRALKVIQEQGEGSRSGTIYDAERELAHDYRFQQILLEKYYVIDKDDPTKSDQPNEPTGKSFNVDWNEVYPIKDNAKLSDYPEGSEVRTAALAFHSAYSEFLAKIEYAFDGHPEQLVPAVGGMFRLKEQANSLMRNPIPGNPGVNAAPIFKLDKR” it was “not soluble”; in that of “MGSDKIHHHHHHVDDNALPVEETFKDIDLANNLKDCGKPLLLSDIVKDVEYVKLETQDNILVGDIKQLKRTEKFVFIYSRNQRHVMMFDTSGKFIRKIGHVGQGPGEIANIHCFTVSDSLVFIYPFSRNGSLTVYDMRDNSFVKEFSLKWPVFFSWTIDVMGDCLVYYPGTVYLPDNSKTFISACVANGKGETLMEQIPYLSSGDKEIVQLSSDPSWLYRGRSNVYSFINDTIYGITCDSIFPRYHLSLGKYKLPSGRYDPTHDYGWGDFVLMQSVYETKEFLFLELGTLL”, “not soluble”.

As for “MRRIAIVGGGQAGLPLAFGLLDKGYEVTVVSNRTPDDIRRGKVMSSQCMFDPALQIERELGINGWEADCPPVEGIGFAVPHPEQAGAKAIEWSARLDRPAQSVDQRVKMPAWLEQVQARGGRLLLQDAGIAELEALAQSHDLVILAAGKGEVVKLFERDAARSPFDKPQRALALTYVHGLEPAPDYSRVAFNLIPGVGEYFVFPALTLSGPCDIMVFEGVPGGPLDCWRDVRTPQEHLAASRRFLQTYLPWEADRARNVELTDDKGILAGAFAPTVRKPVMTLPSGRLVFGLGDAVVTNDPITGQGANNATKACKVYLDAILARGEQPYTRDWMEATFEQFWDYAQWVVQWTNSLLTPPPPHILGLLGTAEQAPSLASTIANGFNHPPSYFPWWADAQACEGFIAQHQRTPATATALEHHHHHH”, the “soluble on expression in E. coli” value is given as “not soluble”. In the case of “MVVFVQSRKRWTYSSAHLLVEEYPSKKVDFKEFASKLTEDEINLRVMPIFWVAGHDNAVLSSTISDSTVALLSRWDVIAAMEAVSRYKVTSMYLTFDMYWQILEHPERELEIFEDLYTFKLCEKGLTVQLREKWKEVAGAILREARTS” it was “not soluble”. For the sequence “AHHHHHHGSELFFITSNDGKVREAKKFLEPLGINVIKKPLEYPEIQADTLEDVVVFGLNWLKDKVDKPFIIEDSGLFIEALNGFPGVYSAYVYKTIGLDGILKLMEGIENRKAYFKSVIGFYDGEIHLFVGEVRGRISNEKRGLHGFGYDPIFVPDGFDKTFAEMSTEEKNSVSHRGKALKEFYRWMKENLKK”, the “soluble on expression in E. coli” value is reported as “soluble”.

With “MGSDKIHHHHHHADTFSVLAHELMHFVYPSGTELLTPNVTKAANKCTQDEVKMMGDSDAVKPIDGWFSKKVTHEDLANIMGLRMVMKMAAKKSVNEEQLKNALETILGGLCIQGKPKNSILPHHHPFEISINTAVRQYPLFSSLYGCRPGDRMFAEAEKFCNPLGGEVNLEDYKIKNDTEDIGGFFNYIMDTANAFNFSIEN”, the “soluble on expression in E. coli” value is “not soluble”. For “MGSDKIHHHHHHMSELTQLFPQPLWQWFAQICAIPHPSKHEQALSLHIQQWAKDKGLSVIEDKVGNLIIKKPAFAGMEDRKKVVLQAHLDMVPQKNADKVHNFETDPIEAYIDGDWVKAKGTTLGSDNGIGMASALAILGSDSIKHGPLEVLLTIDEEAGMTGAFGLEAGMLEAEILINTDSEQEGEIYMGCAGGVDGQISLPMSWQSPEQSNSSFNLTLSGLKGGHSGVNIHLGRGNANKLLARFLFDYADDLALELVSFSGGSLRNAIPREASISFMLPPENLTALNQAIADFQALVREELAIADPGMLLTLVEVPAHTKVMGEDSQNTLIDLLHVCPNGVIRMSDEVEGVTETSLNVGVISTHDDSVEILCLIRSLIDSGRSEVTGMITALTHLAGADVEFSGAYPGWKPDTSSPVMAIVRETYNDIYHKDPTVMVIHAGLECGLFKEPYPAMDMVSIGPTIRYPHSPDEMVNITTVGQYWQLLLAVLERIPVRG” the value was “not soluble”; for “MTEEIVELVLRERISPLLRSHGGDLSLSQIKDKTVFVRFSGACRFCPAAHETVEKIVQAMIREYFKDDNIDVILENSVSDDLLEQAKNILRKPK”, “not soluble”.

For “GVRFAFGPTVDFHFGENYAFSTGAWYLSSRAGLSQSVPGLTYKEIVSLQSVQIPVTFKAYTNEIATNMKLYFQLGGLATFNFYEKFKESTPSNSSYDDKYNVFDVSLYVGAGVSYKIGESNALFGGFYYSRGLMNMLDGSTIPGTSDRYKKAAKYNNDLVGLEVGITF”, the “soluble on expression in E. coli” value is “not soluble”. For the sequence “MSLNPVNGAILSIEISHPNGFEIDENISAYHDAEYYMDRIFDSGNYDSLIVLTSIKILSQHWEIDNDMVVTSQSIRQLAIDTINSKAESGTIKNYWFKLQSLCEEFKNLSQETLSLSVFDNQVLTLNVNGHGIFRKSAFFESFANQKLNSADGKLMLIFNKFETFISRKSYHKLHEELLQLRKISANEITNLFTKHIEGKISTNEIQTILKDLEQIPGIVEIVKSLIGSSGFELIVDANSISSKELGAFHKISTVMIFKNIMETHKTLLLDLVVLFLTCETNDQIVEFVNQIRATLVQYDVMEVVFTTCLNKGEVETKNMGQVQNSIFWSSVVATHSQLKRLIESLQLNDGYEYFYNNVLPDDYLVDVVIELINNKEYFFLQKKFLTKLNQEGHHHHHH”, the “soluble on expression in E. coli” value is “not soluble”. For “MGSDKIHHHHHHMQFGAKPLFENVSVKFGNGNRYGLIGANGCGKSTFMKILGNDLEPSAGQVMLEPNVRLGKLRQDQFAYEDFSVIDTVIMGHEELWAVKAERDRIYSLPEMSEADGMAVAELEVQFAEFDGYTAESRAGELLLGLGIPLEQHFGPMSAVAPGWKLRVLLAQALFSDPDVLLLDEPTNHLDINTIRWLEGVLTARNSTMIIISHDRHFLNSVCTHMADLDYGELRLFPGNYDEYMTAAEQARERLLSDNAKKKAQIAELQSFVSRFSANASKAKQATSRARQIDKIQLEEVKPSSRVSPFIRFEQYKKLHRQAVTVENISKGYDGKPLFKGLSLQVEAGERVAIIGPNGIGKTTLLRCLVGDLPVDGGEVKWTDSADVGYFAQDHADDFADDMSLFDWMAQWTQGGEQLVRGTLGRMLFSNDEIKKSVKVISGGEQGRMLFGRLILKRPNVLVMDEPTNHLDMESIEALNLALDNYPGTLIFVSHDREFVSSLATRIIELGENGVTDFSGSYDDYLRSQGVIV” the value was “not soluble”; for “SEAAETEAEAAALEVLAEVAGILEPVGLQEEAELPAKILVEFVVDSQKKDKLLCSQLQVADFLQNILAQEDTAKGLDPLASEDTSRQKAIAAKEQWKELKATYREHVEAIKIGLTKALTQMEEAQRKRTQLREAFEQLQAKKQMAMEKRRAVQNQWQLQQEKHLQHLAEVSAEVRERKTGTQQELDGVFQKLGNLKQQAEQERDKLQRYQTFLQLLYTLQGKLLFPEAEAEAENLPDDKPQQPTRPQEQSTGDTMGRDPGVSFKAVGLQPAGDVNLP”, “soluble”; for “MRGSHHHHHHGSACELVREMEGVDYLADERKKAGFDVDEMKIVWAGSRHDFELTDRISKLVASDPGFSKEGRTMLPRKELFKNTLRKAAYAWKRIIELRLSQEEATMLRRYVDEPAFTDLHWGMFIPAIKGQGTDKQQEKWLPLAYKMQIIGCYAQTELGHGSNVQGLETTATFDPQTDEFVIHSPTLTSSKWWPGGLGKVSTHAVVYARLITDGKDYGVNGFIVQLRSLEDHKPLPGVTVGDIGMKFGNGAYNSMDNGVLSFDHVRIPRDQMLMRVSQVTKEGKYVQSDIPRQLLYGTMVYVRQSIVADASLAMSRAVCIATRYSAVRRQFGSQNGGQETQVIDYKTQQNRLFPLLASAYAFRFVGEWLKWLYTDVTQRLAANDFSTLPEAHACTAGLKSLTTSATADGIEECRKLCGGHGYLCSSGLPELFAVYVPACTYEGDNVVLQLQVARFLMKTISQLGTGKKPVGTVSYMGRIEHLMQCRSDVKQAEDWLKPSAVLEAFEARSARMSVACAKNLSKFENQEEGFAELAADLVEAAVAHCQLIVVSKYIEKLQQNIPGKGVKQQLEVLCGIYSLFILHKHQGDFLGTGYITSKQGSLANDQLRALYSQLRPNAVSLVDAFNYTDHYLGSILGRYDGNVYPKLYEAAWKDPLNKSDIADGFHEYIRPLLKQQLRTAKL”, “soluble”. With “MPLGLGRRKKAPPLVENEEAEPGRGGLGVGEPGPLGGGGSGGPQMGLPPPPPALRPRLVFHTQLAHGSPTGRIEGFTNVKELYGKIAEAFRLPTAEVMFCTLNTHKVDMDKLLGGQIGLEDFIFAHVKGQRKEVEVFKSEDALGLTITDNGAGYAFIKRIKEGSVIDHIHLISVGDMIEAINGQSLLGCRHYEVARLLKELPRGRTFTLKLTEPRKAFDMISQRSAGGRPGSGPQLGTGRGTLRLRSRGPATVEDLPSAFEEKAIEKVDDLLESYMGIRDTELAATMVELGKDKRNPDELAEALDERLGDFAFPDEFVFDVWGAIGDAKVGRYLEHHHHHH”, the “soluble on expression in E. coli” value is given as “not soluble”.

Source of the values: the DeepSol protein solubility set.
